According to article PMC6953194:

Legend:
Test in all cases: SPR
[1] = molecular target: VRC01 antibody derived from HEK cells (VRC01HEK) (human)
[2] = molecular target: VRC01 expressed in the ΔXT/FT N. benthamiana plant line (VRC01ΔXF) (human)
[3] = molecular target: VRC01 expressed transiently in WT N. benthamiana (VRC01WT) (human)
[4] = molecular target: plant‐produced VRC01 variant lacking Fc N‐glycans, N297S (VRC01aglyco) (human)
[5] = molecular target: VRC01 co‐expressed with human β1,4‐galactosyltransferase in the ΔXT/FT plant line (VRC01Gal) (human)
VRC01 co‐expressed with human β1,4‐galactosyltransferase in the ΔXT/FT plant line (VRC01Gal) (human), sequence (light, as listed by the source, chain 2 of 2, other chains not shown): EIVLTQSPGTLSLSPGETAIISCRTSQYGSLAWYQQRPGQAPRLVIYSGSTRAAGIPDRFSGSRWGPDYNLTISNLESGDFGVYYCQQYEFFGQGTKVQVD

VRC01 expressed transiently in WT N. benthamiana (VRC01WT) (human), sequence (light, as listed by the source, chain 2 of 2, other chains not shown): as above
recombinant human FcγRI ectodomain, sequence (P12314 16-292): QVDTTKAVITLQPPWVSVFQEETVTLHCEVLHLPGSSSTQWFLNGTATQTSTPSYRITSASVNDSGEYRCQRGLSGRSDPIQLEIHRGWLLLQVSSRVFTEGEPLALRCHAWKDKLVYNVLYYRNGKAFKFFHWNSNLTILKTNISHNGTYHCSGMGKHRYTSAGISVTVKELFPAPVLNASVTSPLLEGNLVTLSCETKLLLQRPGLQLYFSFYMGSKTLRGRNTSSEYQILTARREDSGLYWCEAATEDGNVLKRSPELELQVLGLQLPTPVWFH
VRC01 antibody derived from HEK cells (VRC01HEK) (human), sequence (light, as listed by the source, chain 2 of 2, other chains not shown): as the sequence (light, as listed by the source, chain 2 of 2, other chains not shown) above
VRC01 expressed in the ΔXT/FT N. benthamiana plant line (VRC01ΔXF) (human), sequence (light, as listed by the source, chain 2 of 2, other chains not shown): as above
plant‐produced VRC01 variant lacking Fc N‐glycans, N297S (VRC01aglyco) (human), sequence (light, as listed by the source, chain 2 of 2, other chains not shown): as above

Kd [1] [nM]	Kd [2] [nM]	Kd [3] [nM]	half‐life of the antibody–FcγRI complex [3] [min]	Kd [4] [nM]	Kd [5] [nM]	Substance
0.098	0.247	3	5	71	0.558	recombinant human FcγRI ectodomain (from UniProt P12314 16-292) (receptor)
3400	2500	> 7000	–	–	3700	recombinant human FcγRIIb ectodomain (from UniProt P31994 43-217) (receptor)
